Consider 4 sequences from the supplement of paper PMC5998384.

The test system of data set [1] is HeLa Kyoto. Put plainly: solubility in G1/S (NP-40 vs SDS abundance) (log2 ratio); higher = more soluble. Conditions: cell cycle stage: G1/S.
Data set [2] has as its system HeLa Kyoto. Kind of data set: melting temperature (median over replicates), in situ; higher = more thermally stable.
Data set [3] deals with HeLa Kyoto. Kind of data set: solubility change mitosis vs G1/S (difference of NP-40 vs SDS log2 ratios) (log2 ratio difference); higher = more soluble in mitosis.
The subject of data set [4] is HeLa Kyoto. Kind of data set: thermal stability score vs G1/S (z-score of summed log2 fold changes over temperatures); higher = more thermally stable than in G1/S.
Setting [5] is: cell cycle stage: early G1 (4.5 h after nocodazole release).
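Throughout, for melting temperature (median over replicates), in situ: HeLa Kyoto cells synchronized by double thymidine or nocodazole block, proteins quantified by TMT10plex mass spectrometry, three independent biological replicates.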
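Throughout, for solubility change mitosis vs G1/S (difference of NP-40 vs SDS log2 ratios): synchronized HeLa Kyoto cells (double thymidine block for G1/S, nocodazole release for mitosis), protein amounts in NP-40 versus SDS lysates quantified by mass spectrometry, three biological replicates.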
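Throughout, for solubility in G1/S (NP-40 vs SDS abundance): HeLa Kyoto cells arrested at G1/S by double thymidine block, proteins quantified by TMT10plex mass spectrometry in mild NP-40 versus SDS extracts, three biological replicates.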
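Throughout, for thermal stability score vs G1/S (z-score of summed log2 fold changes over temperatures): synchronized HeLa Kyoto cells, proteins quantified by TMT10plex mass spectrometry, three biological replicates, mitosis taken 0.5 h after nocodazole release, G1/S directly after double thymidine block.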

As for “MSASAQQLAEELQIFGLDCEEALIEKLVELCVQYGQNEEGMVGELIAFCTSTHKVGLTSEILNSFEHEFLSKRLSKARHSTCKDSGHAGARDIVSIQELIEVEEEEEILLNSYTTPSKGSQKRAISTPETPLTKRSVSTRSPHQLLSPSSFSPSATPSQKYNSRSNRGEVVTSFGLAQGVSWSGRGGAGNISLKVLGCPEALTGSYKSMFQKLPDIREVLTCKIEELGSELKEHYKIEAFTPLLAPAQEPVTLLGQIGCDSNGKLNNKSVILEGDREHSSGAQIPVDLSELKEYSLFPGQVVIMEGINTTGRKLVATKLYEGVPLPFYQPTEEDADFEQSMVLVACGPYTTSDSITYDPLLDLIAVINHDRPDVCILFGPFLDAKHEQVENCLLTSPFEDIFKQCLRTIIEGTRSSGSHLVFVPSLRDVHHEPVYPQPPFSYSDLSREDKKQVQFVSEPCSLSINGVIFGLTSTDLLFHLGAEEISSSSGTSDRFSRILKHILTQRSYYPLYPPQEDMAIDYESFYVYAQLPVTPDVLIIPSELRYFVKDVLGCVCVNPGRLTKGQVGGTFARLYLRRPAADGAERQSPCIAVQVVRI [POLA2]”, the “solubility in G1/S (log2)” value in data set [1] was found to be 0.0737. The melting temperature in data set [2] (cell cycle stage: G1/S) stood at 48.8 °C; in data set [2] (cell cycle stage: mitosis) it was 50.2 °C. For the same sequence, the “solubility change mitosis (log2)” value in data set [3] was -0.155. The thermal stability score in data set [4] (setting [5]) was found to be 1.44; in data set [4] (cell cycle stage: mitosis), 4.66.

In the case of “MMAIRELKVCLLGDTGVGKSSIVCRFVQDHFDHNISPTIGASFMTKTVPCGNELHKFLIWDTAGQERFHSLAPMYYRGSAAAVIVYDITKQDSFYTLKKWVKELKEHGPENIVMAIAGNKCDLSDIREVPLKDAKEYAESIGAIVVETSAKNAINIEELFQGISRQIPPLDPHENGNNGTIKVEKPTMQASRRCC [RAB31]”, in data set [1], the “solubility in G1/S (log2)” value is -0.166. The melting temperature in data set [2] (cell cycle stage: G1/S) came to 54.6 °C; in data set [2] (cell cycle stage: mitosis) it was 53.9 °C. Further, the “solubility change mitosis (log2)” value in data set [3] came to 0.0123. Moreover, the thermal stability score in data set [4] (setting [5]) was -1.38; in data set [4] (cell cycle stage: mitosis) it was -0.537.

For the sequence “MTDQENNNNISSNPFAALFGSLADAKQFAAIQKEQLKQQSDELPASPDDSDNSVSESLDEFDYSVAEISRSFRSQQEICEQLNINHMIQRIFLITLDNSDPSLKSGNGIPSRCVYLEEMAVELEDQDWLDMSNVEQALFARLLLQDPGNHLINMTSSTTLNLSADRDAGERHIFCYLYSCFQRAKEEITKVPENLLPFAVQCRNLTVSNTRTVLLTPEIYVDQNIHEQLVDLMLEAIQGAHFEDVTEFLEEVIEALILDEEVRTFPEVMIPVFDILLGRIKDLELCQILLYAYLDILLYFTRQKDMAKVFVEYIQPKDPTNGQMYQKTLLGVILSISCLLKTPGVVENHGYFLNPSRSSPQEIKVQEANIHQFMAQFHEKIYQMLKNLLQLSPETKHCILSWLGNCLHANAGRTKIWANQMPEIFFQMYASDAFFLNLGAALLKLCQPFCKPRSSRLLTFNPTYCALKELNDEERKIKNVHMRGLDKETCLIPAVQEPKFPQNYNLVTENLALTEYTLYLGFHRLHDQMVKINQNLHRLQVAWRDAQQSSSPAADNLREQFERLMTIYLSTKTAMTEPQMLQNCLNLQVSMAVLLVQLAIGNEGSQPIELTFPLPDGYSSLAYVPEFFADNLGDFLIFLRRFADDILETSADSLEHVLHFITIFTGSIERMKNPHLRAKLAEVLEAVMPHLDQTPNPLVSSVFHRKRVFCNFQYAPQLAEALIKVFVDIEFTGDPHQFEQKFNYRRPMYPILRYMWGTDTYRESIKDLADYASKNLEAMNPPLFLRFLNLLMNDAIFLLDEAIQYLSKIKIQQIEKDRGEWDSLTPEARREKEAGLQMFGQLARFHNIMSNETIGTLAFLTSEIKSLFVHPFLAERIISMLNYFLQHLVGPKMGALKVKDFSEFDFKPQQLVSDICTIYLNLGDEENFCATVPKDGRSYSPTLFAQTVRVLKKINKPGNMIMAFSNLAERIKSLADLQQQEEETYADACDEFLDPIMSTLMCDPVVLPSSRVTVDRSTIARHLLSDQTDPFNRSPLTMDQIRPNTELKEKIQRWLAERKQQKEQLE [UBE4A]”, the “solubility in G1/S (log2)” value in data set [1] is -0.123. Moreover, the values for the melting temperature in data set [2] (cell cycle stage: G1/S) and in data set [2] (cell cycle stage: mitosis) were 49.4 °C and 50 °C, respectively. Further, the “solubility change mitosis (log2)” value in data set [3] is -0.0832. Further, the thermal stability score in data set [4] (setting [5]) is -0.166; in data set [4] (cell cycle stage: mitosis), 0.519.

For the sequence “MSMEDYDFLFKIVLIGNAGVGKTCLVRRFTQGLFPPGQGATIGVDFMIKTVEINGEKVKLQIWDTAGQERFRSITQSYYRSANALILTYDITCEESFRCLPEWLREIEQYASNKVITVLVGNKIDLAERREVSQQRAEEFSEAQDMYYLETSAKESDNVEKLFLDLACRLISEARQNTLVNNVSSPLPGEGKSISYLTCCNFN [RAB30]”, in data set [1], the “solubility in G1/S (log2)” value is -0.379. Further, the results for the melting temperature in data set [2] (cell cycle stage: G1/S) and in data set [2] (cell cycle stage: mitosis) were 51.3 °C and 51.7 °C, respectively. Also, the “solubility change mitosis (log2)” value in data set [3] is -0.0812. The thermal stability score stood at 0.727 in data set [4] (setting [5]) and 1.4 in data set [4] (cell cycle stage: mitosis).
